Measurements taken from patent publication US20230235004A1 (published 2023).
Numbering of substitutions follows the chain as printed. Read-outs that look alike come from different tables or passages of the source. One block for each binder: values may come before it.

Legend:
Experiment in all cases: cell binding
[1] = target: T1, human MAdCAM expressed on cells (human, UniProt Q13477 19-382)
T1 construct: whole, on cells
T1 sequence (looked up): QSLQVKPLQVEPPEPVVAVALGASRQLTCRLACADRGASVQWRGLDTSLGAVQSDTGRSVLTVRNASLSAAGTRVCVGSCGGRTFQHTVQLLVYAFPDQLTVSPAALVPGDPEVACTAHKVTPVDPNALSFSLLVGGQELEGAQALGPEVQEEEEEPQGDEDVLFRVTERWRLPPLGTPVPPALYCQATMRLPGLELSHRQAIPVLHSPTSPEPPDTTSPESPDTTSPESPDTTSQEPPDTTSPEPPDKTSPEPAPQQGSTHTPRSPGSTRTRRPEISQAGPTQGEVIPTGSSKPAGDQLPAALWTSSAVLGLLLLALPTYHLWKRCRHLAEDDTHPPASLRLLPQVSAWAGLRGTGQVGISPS

[2] = target: T2, mouse MAdCAM expressed on cells (mouse, UniProt Q61826 22-405)
T2 construct: whole, on cells
T2 sequence (looked up): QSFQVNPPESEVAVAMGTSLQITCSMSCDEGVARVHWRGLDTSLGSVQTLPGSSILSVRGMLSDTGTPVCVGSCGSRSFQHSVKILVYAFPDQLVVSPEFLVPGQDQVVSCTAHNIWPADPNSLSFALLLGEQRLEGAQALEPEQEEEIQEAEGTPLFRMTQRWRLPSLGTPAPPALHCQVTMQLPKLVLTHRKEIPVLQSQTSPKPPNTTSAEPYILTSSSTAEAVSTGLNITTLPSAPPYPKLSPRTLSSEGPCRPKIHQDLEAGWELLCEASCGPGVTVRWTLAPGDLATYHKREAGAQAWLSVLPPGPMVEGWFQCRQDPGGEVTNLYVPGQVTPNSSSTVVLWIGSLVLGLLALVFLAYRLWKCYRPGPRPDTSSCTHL

[3] = target: T1, human MAdCAM expressed on cells; remark: listed apart in the source
[4] = target: T2, mouse MAdCAM expressed on cells; remark: listed apart in the source

- binding result [3]: binds
- binding result [4]: no binding
B5: MAdCAM antibody Table 1 clone 26 (scFv)
scFv: QVQLVQSGAEVKKPGASVKVSCKASGYTLTTWYMYWVRQAPGQGLEWMGWINPNRGATNYAQKFQGRVTMTRDTSTSTVYMELSSLRSEDTAVYYCAKGDLWGAMDVWGQGTTVTVSSGGGGSGGGGSGGGGSGGGGSDIQMTQSPSSLSASVGDRVTITCRASDNIGSWLAWYQQKPGKAPKLLIYAASSLQSGVPSRFSGSGSGTDFTLTISSLQPEDFATYYCQQGYSTPPTFGQGTKVEIK

- binding result [3]: binds
- binding result [4]: no binding
B6: MAdCAM antibody Table 1 clone 27 (scFv)
scFv: QVQLVQSGAEVKKPGASVKVSCKASGYTFTGYYIHWVRQAPGQGLEWMGWMNPNSGNTGYAQKFQGRVTMTRDTSTSTVYMELSSLRSEDTAVYYCARDPGFLGYCSGGSCYDGWFDPWGQGTLVTVSSGGGGSGGGGSGGGGSGGGGSDIQMTQSPSSLSASVGDRVTITCRASQSISSYLHWYQQKPGKAPKLLIYAASSLQSGVPSRFSGSGSGTDFTLTISSLQPEDFATYYCQQSYTAPYTFGQGTKLEIK

- binding result [4]: no binding
B9: MAdCAM antibody Table 1 clone 8 (scFv)
scFv: EVQLLESGGGLVQPGGSLRLSCAASGFMFGDYAMHWVRQAPGKGLEWVSAISGSGGSTYYADSVKGRFTISRDNSKNTLYLQMNSLRAEDTAVYYCAKDLVVAGIWYFDLWGRGTLVTVSSGGGGSGGGGSGGGGSGGGGSDIQMTQSPSSLSASVGDRVTITCRASQGISNNLNWYQQKPGKAPKLLIYDASSLESGVPSRFSGSGSGTDFTLTISSLQPEDFATYYCQQTHSFPSTFGQGTKLEIK

- binding result [3]: binds
- binding result [4]: no binding
B10: MAdCAM antibody Table 1 clone 17 (scFv)
scFv: EVQLLESGGGLVQPGGSLRLSCAASGFTFSDSAMHWVRQAPGKGLEWVSAISGSGSTIYYADSVKGRFTISRDNSKNTLYLQMNSLRAEDTAVYYCVSDIAVAGHWYFDLWGRGTLVTVSSGGGGSGGGGSGGGGSGGGGSDIQMTQSPSSLSASVGDRVTITCRASQSISTFLNWYQQKPGKAPKLLIYAASRLEGGVPSRFSGSGSGTDFTLTISSLQPEDFATYYCQQANSFPLTFGPGTKVDIK

- binding result [1]: binds
- binding result [2]: binds
B11: MAdCAM Antibody Table 2 clone 77 (antibody, V domains shown)
VH: EVQLLESGGGLVQPGGSLRLSCAASEFTFSNAWMSWVRQAPGKGLEWVASISSTSAYIDYADSVKGRFTISRDNSKNTLYLQMNSLRAEDTAVYYCAREVVGATTFDYWGQGTLVTVSS
VL: DIQMTQSPSSLSASVGDRVTITCRASQSISTWLAWYQQKPGKAPKLLIYAASSLQSGVPSRFSGSGSGTDFTLTISSLQPEDFATYYCQQANAFPPTFGQGTRLEIK
notes: IgG format

- binding result [3]: binds
- binding result [4]: no binding
B15: MAdCAM antibody Table 1 clone 16 (scFv)
scFv: EVQLLESGGGLVQPGGSLRLSCAASGFTFEDYAMHWVRQAPGKGLEWVSYLNSDGGSTSYADSVKGRFTISRDNSKNTLYLQMNSLRAEDTAVYYCAKDYCTNGVCAFDYWGQGTLVTVSSGGGGSGGGGSGGGGSGGGGSDIQMTQSPSSLSASVGDRVTITCRASQSISTYLNWYQQKPGKAPKLLIYDASNLETGVPSRFSGSGSGTDFTLTISSLQPEDFATYYCQQSYTIPITFGQGTRLEIK

More lines, now with the values behind:

B1: MAdCAM Antibody Table 2 clone 81 (antibody, V domains shown)
VH: EVQLLESGGGLVKPGGSLRLSCAASGFAFSSHWMHWVRQAPGKGLEWVAGTSGSGESRDYADFVKGRFTISRDDSKNTLYLQMNSLKTEDTAVYYCARETYYYYYMDVWGKGTTVTVSS
VL: DIQMTQSPSSLSASVGDRVTITCRASQGISNYLAWYQQKPGKAPKLLIYDAANLEGGVPSRFSGSGSGTDFTLTISSLQPEDFATYYCQQSDIFPPTFGQGTKVEIK
notes: IgG format
- binding result [1]: binds
- binding result [2]: binds

B2: MAdCAM antibody Table 1 clone 10 (scFv)
scFv: B5 scFv with T113L
- binding result [3]: binds
- binding result [4]: no binding

B3: MAdCAM antibody Table 1 clone 25 (scFv)
scFv: B5 scFv with T113L
- binding result [4]: no binding

B4: MAdCAM antibody Table 1 clone 30 (scFv)
scFv: B5 scFv with T113L
- binding result [4]: no binding

B7: MAdCAM antibody Table 1 clone 21 (scFv)
scFv: EVQLLESGGGLVQPGGSLRLSCAASGFTFSNAWMSWVRQAPGKGLEWVSTIVGNGGATYYADSVKGRFTISRDNSKNTLYLQMNSLRAEDTAVYYCARDNPLRWQGMDVWGQGTLVTVSSGGGGSGGGGSGGGGSGGGGSDIQMTQSPSSLSASVGDRVTITCRASQDISNYLNWYQQKPGKAPKLLIYAASSLQSGVPSRFSGSGSGTDFTLTISSLQPEDFATYYCQQSYSIPPTFGPGTKVDIK
- binding result [3]: binds
- binding result [4]: no binding

B8: MAdCAM antibody Table 1 clone 28 (scFv)
scFv: QVQLVQSGAEVKKPGASVKVSCKASGYTFTDYFLHWVRQAPGQGLEWMGWMNPTSGNTGYAQKFQGRVTMTRDTSTSTVYMELSSLRSEDTAVYYCAREGEGSGFDYWGQGTLVTVSSGGGGSGGGGSGGGGSGGGGSDIQMTQSPSSLSASVGDRVTITCRASQGINSWLAWYQQKPGKAPKLLIYDASNLETGVPSRFSGSGSGTDFTLTISSLQPEDFATYYCQQSYSTPLTFGGGTKVEIK
- binding result [3]: binds
- binding result [4]: no binding

B12: MAdCAM Antibody Table 2 clone 72 (antibody, V domains shown)
VH: QVQLVQSGAEVKKPGASVKVSCKASGYTFTSYYMHWVRQAPGQGLEWMGVINPIGGTTTYAQKFQGRVTMTRDTSTSTVYMELSSLRSEDTAVYYCASGAPSYYYYGMDVWGQGTLVTVSS
VL: DIQMTQSPSSLSASVGDRVTITCRASQSISSYLNWYQQKPGKAPKLLIYGTSYLATGVPSRFSGSGSGTDFTLTISSLQPEDFATYYCQQSYSTPLTFGQGTKVEIK
notes: IgG format
- binding result [1]: binds
- binding result [2]: no binding

B13: MAdCAM Antibody Table 2 clone 80 (antibody, V domains shown)
VH: EVQLLESGGGLVQPGGSLRLSCAASGFTFDDYAMHWVRQAPGKGLEWVSAISGSGGSTYYADSVKGRFTISRDNSKNTLYLQMNSLRAEDTAVYYCAKDLGVVVPAALDYWGQGTTVTVSS
VL: B12 VL with R24Q, S28D, S31N, Y32H, G50D, T51A, Y53N, A55E, T56A, Q100G
notes: IgG format
- binding result [1]: binds
- binding result [2]: no binding

B14: MAdCAM Antibody Table 2 clone 73 (antibody, V domains shown)
VH: QVQLVQSGAEVKKPGASVKVSCKASGYTFTSNYVHWVRQAPGQGLEWMGRINPHSGDTSYAQKFQGRVTMTRDTSTSTVYMELSSLRSEDTAVYYCARAGQLWSDWYFDLWGRGTLVTVSS
VL: B12 VL with R24Q, S28D, S30R, S31N, G50A, T51A, S52T, Y53A, A55R, T94H
notes: IgG format
- binding result [1]: binds
- binding result [2]: no binding
